Results taken from patent US20260027153A1 (published 2026).
Each block holds one molecule with its values, some of them ahead of it.

Columns and labels:
[1] = target: HLA-A*02:01 restricted NY-ESO-1 C9V peptide (…) pMHC (human); assay: transduced PBMCs loaded on pMHC-labeled nanovials (20 µg/ml pMHC), anti-NGFR staining, flow cytometry
[2] = target: HLA-A*02:01 restricted NY-ESO-1 C9V peptide (…) pMHC (human); assay: transduced PBMCs loaded on pMHC-labeled nanovials (20 µg/ml pMHC), flow cytometry
[3] = target: T1, MEAF6 (MYST/Esa1 associated factor 6) splicing variant peptide on HLA-A*02:01 (human); assay: multimer staining
T1 peptide: SGMFDYDFEYV

[4] = target: T2, SCAMP3 (secretory carrier-associated membrane protein 3), cancer-enhanced splicing epitope peptide on … (human); assay: multimer staining
T2 peptide: STMYYLWML

B1: NVTCR21 (TCR, V domains shown)
Valpha: AQSVAQPEDQVNVAEGNPLTVKCTYSVSGNPYLFWYVQYPNRGLQFLLKYITGDNLVKGSYGFEAEFNKSQTSFHLKKPSALVSDSALYFCAVRDTPSGSARQLTFGSGTQLTVLP
Vbeta: GAGVSQTPSNKVTEKGKYVELRCDPISGHTALYWYRQSLGQGPEFLIYFQGTGAADDSGLPNDRFFAVRPEGSVSTLKIQRTERGDSAVYLCASSLTSSGGGPYNEQFFGPGTRLTVL
binding result [3]: recognises

B2: NVTCR11 (TCR, V domains shown)
Valpha: GIQVEQSPPDLILQEGANSTLRCNFSDSVNNLQWFHQNPWGQLINLFYIPSGTKQNGRLSATTVATERYSLLYISSSQTTDSGVYFCAVDLNDYKLSFGAGTTVTVRA
Vbeta: NAGVTQTPKFRVLKTGQSMTLLCAQDMNHEYMYWYRQDPGMGLRLIHYSVGEGTTAKGEVPDGYNVSRLKKQNFLLGLESAAPSQTSVYFCASSSHGSTGELFFGEGSRLTVL
binding result [4]: recognises

More lines, now with the values ahead:

fraction of nanovial-bound live cells with NGFR expression [1]: 93.9%
fraction of nanovials occupied by live cells [2]: 17%
Molecule: 1G4 TCR

binding result [4]: recognises
B3: NVTCR19 (TCR, V domains shown)
Valpha: KQEVTQIPAALSVPEGENLVLNCSFTDSAIYNLQWFRQDPGKGLTSLLLIQSSQREQTSGRLNASLDKSSGRSTLYIAASQPGDSATYLCAVTSGGSYIPTFGRGTSLIVHP
Vbeta: DGGITQSPKYLFRKEGQNVTLSCEQNLNHDAMYWYRQDPGQGLRLIYYSQIVNDFQKGDIAEGYSVSREKKESFPLTVTSAQKNPTAFYLCASSDPFRSGTDSPLHFGNGTRLTVT
